Patent publication US20160194407A1

B1: CD730047 antibody (antibody, IgG1, V domains shown)
VH: EVQLVQSGGGVVQPGRSLRLSCAASGFTFSSYGMHWVRQAPGKGLEWVAVISYDGSIKYYADSVKGRFAISRDNAKNTLYLQMNSLRREDTAMYYCASGLTGVAGALGVWGRGTLVTVSS
VL: QSVLTQPPSASGAPGQRVTISCSGSSSNIGSNTVNWYQRLPGAAPQLLIYNNDQRPSGIPDRFSGSKSGTSGSLVISGLQSEDEADYYCAAWDDSLSGNVFGTGTKVTVL
B2: CD730042 antibody (antibody, IgG1, V domains shown)
VH: GVQLVQSGGGLVQPGGSLRLSCAASGFTFSSYGMHWVRQAPGKGLEWVAVISYDGSIKYYADSVKGRFTISRDDSKNALYLQMNSLRAEDTAVYYCSTLSGSYGYFDYWGRGTLVTVSS
VL: QSVLTQPASVSGSPGQSITISCAGTSSDVGGYNYVSWYQQHPGKAPKLMIYEGSKRPSGVSNRFSGSKSGNTASLTISGLQAEDEADYYCSSYTTRSTRVFGGGTKLTVL

Target: T1, recombinant murine CD73 protein (form not stated) (murine) (UniProt Q61503)
T1 sequence (looked up): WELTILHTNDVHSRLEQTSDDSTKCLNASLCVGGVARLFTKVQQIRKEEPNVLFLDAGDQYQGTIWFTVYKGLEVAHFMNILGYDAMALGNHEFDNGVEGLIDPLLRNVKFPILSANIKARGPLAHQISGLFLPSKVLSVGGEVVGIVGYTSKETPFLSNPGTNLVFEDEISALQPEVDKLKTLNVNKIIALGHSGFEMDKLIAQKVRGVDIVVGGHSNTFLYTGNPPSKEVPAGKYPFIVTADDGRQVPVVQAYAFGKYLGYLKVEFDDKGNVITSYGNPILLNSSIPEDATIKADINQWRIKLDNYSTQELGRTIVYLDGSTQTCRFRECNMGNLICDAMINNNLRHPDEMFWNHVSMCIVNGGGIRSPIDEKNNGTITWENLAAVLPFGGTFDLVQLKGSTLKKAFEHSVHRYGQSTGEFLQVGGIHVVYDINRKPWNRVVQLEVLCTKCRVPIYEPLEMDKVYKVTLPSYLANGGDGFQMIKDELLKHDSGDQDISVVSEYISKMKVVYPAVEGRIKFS
Test: Binding, Mouse; assay not described

Binder | 1/EC50 [nM⁻¹]
B1 | 0
B2 | 0
